Data from paper PMC8565929 (eLife, 2021).

B1: Recombinant his-tagged FL-Hst4 (pET28a) (natural protein, S. pombe, UniProt Q9UR39 1-415, looked up)
chain: MKVEEHVPLIQESRKRKCQSSENASKRQQLLSKLPLRLHTGNENVDLSPLVSAIRKAKRIVVVTGAGISCDAGIPDFRSSEGLFSSLRAEYKLNCSGKELFDGSVYRDLKSVNIFHAMIRKLHMLSNNARPTDFHLFLSQLAQESKLLRLYTQNIDFLETRLEGLQTCIPLPQSAPWPTTIPLHGTLEVVSCTRCSFLKKFNPDIFDRNGVTVCPDCKTENEVRRIAGKRSVIEGCLRPRIVLYNEIHPDSESIGSVCSQDLKSRPDCLIVAGTSCKIPGVKRIIKEMSNCVHKQKGNVIWLNYDEPTKDFLNLCDLVVQGDLQIAIRRLKPLLDAPSWKLKSHSAKRTSKQKSSEQTKITSSTKITKAIGLNTKSNDSSKKDNTSFQLHQVLNSIEIPKVEIKQEVEYATPSPL
B2: Swi3-3FLAG (natural protein, S. pombe, UniProt O14350 1-181, looked up)
chain: MSTAASDSGVEKLVEENKREEVKKNEEEKEFDLGLEENPDSVKKPRKRLAKFDEERLISENGIPKLRKMMRKVKLKGKGHEAKDLKQLLGMYHIWTHELYPRATFDDSISYLKTLGKHRSVKVRRRGWINEIAVENGSDSNASLFTGPSSNSLVNLTSGDPYVQDTADDAFVAQDNDTQLE

Legend:
Assay in all cases: pull-down
[1] = biological target: DDK (Hsk1-HA with Dfp1-myc) (S. pombe, UniProt P50582 1-507; O59836 1-545)
Swi1-3FLAG = Swi1-3FLAG (S. pombe, UniProt Q9UUM2 1-971)
[2] = biological target: B1

Swi1-3FLAG, sequence (Q9UUM2 whole entry): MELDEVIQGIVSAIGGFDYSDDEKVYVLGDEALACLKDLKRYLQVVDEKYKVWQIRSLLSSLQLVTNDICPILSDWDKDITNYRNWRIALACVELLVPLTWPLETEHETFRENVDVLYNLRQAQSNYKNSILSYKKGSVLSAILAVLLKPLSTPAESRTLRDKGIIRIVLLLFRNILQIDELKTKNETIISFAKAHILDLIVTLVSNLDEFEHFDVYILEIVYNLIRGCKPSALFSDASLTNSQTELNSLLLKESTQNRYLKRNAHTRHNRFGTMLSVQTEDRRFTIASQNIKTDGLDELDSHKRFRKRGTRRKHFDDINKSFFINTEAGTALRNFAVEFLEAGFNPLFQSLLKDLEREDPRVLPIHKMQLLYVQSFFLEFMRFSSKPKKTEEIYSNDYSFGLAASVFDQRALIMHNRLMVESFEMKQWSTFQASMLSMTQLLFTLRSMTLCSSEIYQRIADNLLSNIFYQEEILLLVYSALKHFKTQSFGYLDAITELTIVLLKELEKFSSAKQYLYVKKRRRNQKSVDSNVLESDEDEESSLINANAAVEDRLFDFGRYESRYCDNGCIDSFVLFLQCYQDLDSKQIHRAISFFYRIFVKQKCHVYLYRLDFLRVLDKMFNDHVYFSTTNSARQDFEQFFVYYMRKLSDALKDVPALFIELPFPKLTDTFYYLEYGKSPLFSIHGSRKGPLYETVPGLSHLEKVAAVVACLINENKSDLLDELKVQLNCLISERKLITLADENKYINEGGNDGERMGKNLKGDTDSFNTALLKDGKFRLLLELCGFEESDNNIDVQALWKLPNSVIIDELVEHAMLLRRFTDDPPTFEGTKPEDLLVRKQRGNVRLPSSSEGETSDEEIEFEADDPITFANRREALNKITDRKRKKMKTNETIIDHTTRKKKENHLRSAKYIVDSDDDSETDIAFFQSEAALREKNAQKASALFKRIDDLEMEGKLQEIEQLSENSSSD
DDK (Hsk1-HA with Dfp1-myc), sequence (P50582 whole entry, chain 1 of 2): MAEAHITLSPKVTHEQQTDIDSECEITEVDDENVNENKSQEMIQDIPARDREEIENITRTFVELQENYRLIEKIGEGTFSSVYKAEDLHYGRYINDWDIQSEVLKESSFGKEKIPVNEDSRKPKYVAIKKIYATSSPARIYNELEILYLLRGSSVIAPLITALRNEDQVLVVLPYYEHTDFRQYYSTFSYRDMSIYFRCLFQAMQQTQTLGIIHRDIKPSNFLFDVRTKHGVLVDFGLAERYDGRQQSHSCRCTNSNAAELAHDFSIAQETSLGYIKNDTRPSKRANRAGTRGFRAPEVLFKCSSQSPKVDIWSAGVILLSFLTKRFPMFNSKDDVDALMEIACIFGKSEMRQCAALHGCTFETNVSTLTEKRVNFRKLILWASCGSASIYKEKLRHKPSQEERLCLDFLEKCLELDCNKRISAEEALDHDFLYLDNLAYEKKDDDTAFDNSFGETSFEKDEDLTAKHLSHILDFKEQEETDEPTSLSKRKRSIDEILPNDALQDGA
DDK (Hsk1-HA with Dfp1-myc), sequence (O59836 whole entry, chain 2 of 2): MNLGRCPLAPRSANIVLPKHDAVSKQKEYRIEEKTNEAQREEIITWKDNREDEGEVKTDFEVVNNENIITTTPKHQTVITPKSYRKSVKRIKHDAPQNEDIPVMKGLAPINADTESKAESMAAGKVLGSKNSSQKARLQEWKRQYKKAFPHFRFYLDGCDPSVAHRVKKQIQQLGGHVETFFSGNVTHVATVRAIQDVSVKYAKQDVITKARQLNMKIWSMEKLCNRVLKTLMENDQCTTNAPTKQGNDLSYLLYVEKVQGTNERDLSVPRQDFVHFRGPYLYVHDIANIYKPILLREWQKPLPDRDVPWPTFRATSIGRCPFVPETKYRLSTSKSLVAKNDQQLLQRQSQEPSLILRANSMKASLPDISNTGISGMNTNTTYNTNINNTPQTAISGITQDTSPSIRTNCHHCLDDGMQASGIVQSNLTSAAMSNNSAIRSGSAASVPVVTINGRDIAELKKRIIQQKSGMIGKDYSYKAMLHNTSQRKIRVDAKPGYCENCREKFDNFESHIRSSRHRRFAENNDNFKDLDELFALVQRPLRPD

## B1
[1]
  binding result: binds
Swi1-3FLAG
  binding result: binds

## B2
[2]
  binding result: binds
